Measurements taken from PMC8439105 (Current biology : CB, 2021).

Legend:
His-tagged LC3B-WT = His-tagged LC3B-WT (human, UniProt Q9GZQ8 1-120); assay: BLI
His-tagged LC3B-T50A = His-tagged LC3B-T50A (human, UniProt Q9GZQ8 1-120, T50A); assay: BLI
His-tagged LC3B-T50E = His-tagged LC3B-T50E (human, UniProt Q9GZQ8 1-120, T50E); assay: BLI
[1] = molecular target: HA-tagged LC3B-T50A (phospho-deficient mutant) (UniProt Q9GZQ8 1-120, T50A); assay: affinity purification with mass spectrometry
[2] = molecular target: HA-tagged LC3B-T50E (phospho-mimetic mutant) (UniProt Q9GZQ8 1-120, T50E); assay: affinity purification with mass spectrometry

B1: FYCO1 peptide (1265–1298 amino acids of the human protein) (peptide)
peptide: GQGANTDYRPPDDAVFDIITDEELCQIQESGSSL
**Q.** With B1 as the binder, how does the Kd (His-tagged LC3B-WT) read?
**A.** ~4.1 µM

**Q.** And the Kd (His-tagged LC3B-T50A)?
**A.** ~6 µM

**Q.** What about the Kd (His-tagged LC3B-T50E) of the same binder?
**A.** ~28 µM

B2: FYCO1 (endogenous, human cells) (natural protein)
chain: MASTNAESQLQRIIRDLQDAVTELSKEFQEAGEPITDDSTSLHKFSYKLEYLLQFDQKEKATLLGNKKDYWDYFCACLAKVKGANDGIRFVKSISELRTSLGKGRAFIRYSLVHQRLADTLQQCFMNTKVTSDWYYARSPFLQPKLSSDIVGQLYELTEVQFDLASRGFDLDAAWPTFARRTLTTGSSAYLWKPPSRSSSMSSLVSSYLQTQEMVSNFDLNSPLNNEALEGFDEMRLELDQLEVREKQLRERMQQLDRENQELRAAVSQQGEQLQTERERGRTAAEDNVRLTCLVAELQKQWEVTQATQNTVKELQTCLQGLELGAAEKEEDYHTALRRLESMLQPLAQELEATRDSLDKKNQHLASFPGWLAMAQQKADTASDTKGRQEPIPSDAAQEMQELGEKLQALERERTKVEEVNRQQSAQLEQLVKELQLKEDARASLERLVKEMAPLQEELSGKGQEADQLWRRLQELLAHTSSWEEELAELRREKKQQQEEKELLEQEVRSLTRQLQFLETQLAQVSQHVSDLEEQKKQLIQDKDHLSQQVGMLERLAGPPGPELPVAGEKNEALVPVNSSLQEAWGKPEEEQRGLQEAQLDDTKVQEGSQEEELRQANRELEKELQNVVGRNQLLEGKLQALQADYQALQQRESAIQGSLASLEAEQASIRHLGDQMEASLLAVRKAKEAMKAQMAEKEAILQSKEGECQQLREEVEQCQQLAEARHRELRALESQCQQQTQLIEVLTAEKGQQGVGPPTDNEARELAAQLALSQAQLEVHQGEVQRLQAQVVDLQAKMRAALDDQDKVQSQLSMAEAVLREHKTLVQQLKEQNEALNRAHVQELLQCSEREGALQEERADEAQQREEELRALQEELSQAKCSSEEAQLEHAELQEQLHRANTDTAELGIQVCALTVEKERVEEALACAVQELQDAKEAASREREGLERQVAGLQQEKESLQEKLKAAKAAAGSLPGLQAQLAQAEQRAQSLQEAAHQELNTLKFQLSAEIMDYQSRLKNAGEECKSLRGQLEEQGRQLQAAEEAVEKLKATQADMGEKLSCTSNHLAECQAAMLRKDKEGAALREDLERTQKELEKATTKIQEYYNKLCQEVTNRERNDQKMLADLDDLNRTKKYLEERLIELLRDKDALWQKSDALEFQQKLSAEERWLGDTEANHCLDCKREFSWMVRRHHCRICGRIFCYYCCNNYVLSKHGGKKERCCRACFQKLSEGPGSPDSSGSGTSQGEPSPALSPASPGPQATGGQGANTDYRPPDDAVFDIITDEELCQIQESGSSLPETPTETDSLDPNAAEQDTTSTSLTPEDTEDMPVGQDSEICLLKSGELMIKVPLTVDEIASFGEGSRELFVRSSTYSLIPITVAEAGLTISWVFSSDPKSISFSVVFQEAEDTPLDQCKVLIPTTRCNSHKENIQGQLKVRTPGIYMLIFDNTFSRFVSKKVFYHLTVDRPVIYDGSDFL
**Q.** Which results are given for B2?
**A.** fold change of binding against HA-LC3B-WT [1]: ~2 fold higher; fold change of binding against HA-LC3B-WT [2]: ~5 fold lower
